To fix the notation:
B1: library; a variant is named by its letters at N, in order (parent)
chain: GCUGUCACCGAGAAACUGUGAAGUAUAUCUUAAACCUGGGCACUUAAAAGAUAUAUGGAGUUAGUAGUGCAACCUGCUCGGUCUGAUGAGUCCNNNNNNGGACGAAACAGC

Variants of B1 are the subject of data set [1]. The experiment in a line: normalized RNA/DNA level without ligand (relative to sTRSVctl = 100) (log10 (% of sTRSVctl)); HEK293T; ligand: cyclic di-GMP (c-di-GMP-II aptamer); higher = less ribozyme self-cleavage, higher mRNA level. The note with it: reporter: mCherry (pCS4076), ligand present: no. In short, it runs like this: (§1)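 Only sequences with at least 100 DNA reads were analyzed, from HEK293T cells transfected with 4 µg per 6-well well of ribozyme switch library plasmids 72 h before RNA extraction with EDTA. Any ligand was added 1 h before transfection. RNA level was defined as RNA over DNA reads, normalized to a spiked-in non-cleaving sequence or to the top sequences, then scaled and log-transformed. The top set was 25 sequences, and the scaling was ×100 followed by log10.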

Data set [2] covers variants of B1. The experiment in a line: normalized RNA/DNA level with ligand (relative to sTRSVctl = 100) (log10 (% of sTRSVctl)); HEK293T; ligand: cyclic di-GMP (c-di-GMP-II aptamer); ligand concentration (+) RNA-Seq: 1 mM; higher = less ribozyme self-cleavage, higher mRNA level. The note with it: reporter: mCherry (pCS4076), ligand present: yes. In short, it runs like this: as §1

± gives the standard deviation of the averaged measurements.

Regarding CUGAGC, the “normalized RNA/DNA level without ligand (log10)” value in data set [1] came to 1.76 ± 0.033. Besides, in data set [2], the “normalized RNA/DNA level with ligand (log10)” value turned out to be 1.87 ± 0.12.
Take AUGAAG: the “normalized RNA/DNA level without ligand (log10)” value in data set [1] came out at 1.52 ± 0.13. Also, the “normalized RNA/DNA level with ligand (log10)” value in data set [2] worked out at 1.67 ± 0.064.
Turning to AUGAAU, in data set [1], the “normalized RNA/DNA level without ligand (log10)” value came out at 1.53 ± 0.055. Moreover, the “normalized RNA/DNA level with ligand (log10)” value in data set [2] was 1.72 ± 0.024.
In the case of AUGGAG, the “normalized RNA/DNA level without ligand (log10)” value in data set [1] is 1.55 ± 0.1. Further, the “normalized RNA/DNA level with ligand (log10)” value in data set [2] amounted to 1.68 ± 0.084.
As for AUGGAC, the “normalized RNA/DNA level without ligand (log10)” value in data set [1] was found to be 1.6 ± 0.055. The “normalized RNA/DNA level with ligand (log10)” value in data set [2] came to 1.76 ± 0.091.
In the case of GUGACG, the “normalized RNA/DNA level without ligand (log10)” value in data set [1] worked out at 1.66 ± 0.021. Moreover, the “normalized RNA/DNA level with ligand (log10)” value in data set [2] came to 1.77 ± 0.11.
Turning to GUGACC, the “normalized RNA/DNA level without ligand (log10)” value in data set [1] turned out to be 1.67 ± 0.065. In data set [2], the “normalized RNA/DNA level with ligand (log10)” value is 1.824 ± 0.015.
Regarding GUGACA, in data set [1], the “normalized RNA/DNA level without ligand (log10)” value stood at 1.665 ± 0.0036. Besides, in data set [2], the “normalized RNA/DNA level with ligand (log10)” value was 1.79 ± 0.069.
As to GUGACU, in data set [1], the “normalized RNA/DNA level without ligand (log10)” value was found to be 1.671 ± 0.002. Also, in data set [2], the “normalized RNA/DNA level with ligand (log10)” value was found to be 1.8 ± 0.089.
Turning to UUGCUU, the “normalized RNA/DNA level without ligand (log10)” value in data set [1] amounted to 1.727 ± 0.0027. Further, the “normalized RNA/DNA level with ligand (log10)” value in data set [2] turned out to be 1.88 ± 0.12.
On the same counts, the results for UUGCUA are 1.62 ± 0.052 and 1.81 ± 0.07.
As to UUGCUC, the “normalized RNA/DNA level without ligand (log10)” value in data set [1] was 1.788 ± 0.015. Further, in data set [2], the “normalized RNA/DNA level with ligand (log10)” value was determined as 1.86 ± 0.071.
Consider UUGCUG, for which, in data set [1], the “normalized RNA/DNA level without ligand (log10)” value turned out to be 1.7171 ± 3.9e-05. Also, the “normalized RNA/DNA level with ligand (log10)” value in data set [2] was 1.84 ± 0.14.
In the case of UUGAUA, the “normalized RNA/DNA level without ligand (log10)” value in data set [1] was found to be 1.49 ± 0.02. Besides, the “normalized RNA/DNA level with ligand (log10)” value in data set [2] is 1.69 ± 0.17.
Take UUGAUU: the “normalized RNA/DNA level without ligand (log10)” value in data set [1] turned out to be 1.698 ± 0.016. Moreover, the “normalized RNA/DNA level with ligand (log10)” value in data set [2] came to 1.81 ± 0.083.
Turning to UUGAUC, the “normalized RNA/DNA level without ligand (log10)” value in data set [1] was 1.73 ± 0.038. Further, in data set [2], the “normalized RNA/DNA level with ligand (log10)” value amounted to 1.85 ± 0.11.
Take AUCUGU: the “normalized RNA/DNA level without ligand (log10)” value in data set [1] was 1.731 ± 0.012. Also, the “normalized RNA/DNA level with ligand (log10)” value in data set [2] is 1.88 ± 0.15.
Regarding UUGAGG, the “normalized RNA/DNA level without ligand (log10)” value in data set [1] was 1.79 ± 0.028. For the same variant, the “normalized RNA/DNA level with ligand (log10)” value in data set [2] stood at 1.87 ± 0.14.
As to UUGAGA, in data set [1], the “normalized RNA/DNA level without ligand (log10)” value turned out to be 1.58 ± 0.071. The “normalized RNA/DNA level with ligand (log10)” value in data set [2] came to 1.77 ± 0.11.
In the case of UUGAGC, the “normalized RNA/DNA level without ligand (log10)” value in data set [1] stood at 1.73 ± 0.025. Besides, in data set [2], the “normalized RNA/DNA level with ligand (log10)” value was 1.86 ± 0.14.
Consider UUGAGU, for which, in data set [1], the “normalized RNA/DNA level without ligand (log10)” value was found to be 1.7248 ± 0.00016. Moreover, the “normalized RNA/DNA level with ligand (log10)” value in data set [2] is 1.83 ± 0.15.
With CUGAUC, the “normalized RNA/DNA level without ligand (log10)” value in data set [1] turned out to be 1.6663 ± 0.001. For the same variant, the “normalized RNA/DNA level with ligand (log10)” value in data set [2] stood at 1.76 ± 0.13.
Regarding AUGAUA, the “normalized RNA/DNA level without ligand (log10)” value in data set [1] is 1.53 ± 0.069. In data set [2], the “normalized RNA/DNA level with ligand (log10)” value came to 1.71 ± 0.14.
Regarding AUGAUC, the “normalized RNA/DNA level without ligand (log10)” value in data set [1] was 1.65 ± 0.049. For the same variant, in data set [2], the “normalized RNA/DNA level with ligand (log10)” value was determined as 1.82 ± 0.087.
On to CUGCUU, for which the “normalized RNA/DNA level without ligand (log10)” value in data set [1] was found to be 1.6 ± 0.06. In data set [2], the “normalized RNA/DNA level with ligand (log10)” value was found to be 1.76 ± 0.09.
With CUGCUC, the “normalized RNA/DNA level without ligand (log10)” value in data set [1] was found to be 1.7 ± 0.0046. Also, in data set [2], the “normalized RNA/DNA level with ligand (log10)” value worked out at 1.83 ± 0.14.
In the case of CUGCUA, the “normalized RNA/DNA level without ligand (log10)” value in data set [1] was found to be 1.4 ± 0.025. Besides, the “normalized RNA/DNA level with ligand (log10)” value in data set [2] came out at 1.57 ± 0.091.
Consider CUGCUG, for which the “normalized RNA/DNA level without ligand (log10)” value in data set [1] turned out to be 1.63 ± 0.055. In addition, the “normalized RNA/DNA level with ligand (log10)” value in data set [2] was 1.79 ± 0.11.
On to AUGAGC, for which the “normalized RNA/DNA level without ligand (log10)” value in data set [1] is 1.62 ± 0.066. In addition, the “normalized RNA/DNA level with ligand (log10)” value in data set [2] worked out at 1.8 ± 0.082.

Source of the values: the supplement of paper PMC6757056.
